Results on one substance are retold here after patent US20080213836.

Series [1] relates to T1, Gly-Asp-Asp-Asp-Asp-Lys-β-naphthylamide.
T1 sequence: GDDDDK

Series [2] has as its system recombinant fusion protein of Medaka trypsinogen.

As to Medaka EP-2 serine protease domain, the “enzyme activity for GD4K-βNA” value in series [1] is reported as “Both enzymes showed maximal activities for GD4K-βNA at pH 8”. Besides, the “conversion of trypsinogen to active trypsin” value in series [2] is listed as “The trypsinogen was converted to active trypsin by EP-1 faster than by EP-2”.
